In article PMC3744483, “Swiprosin-1 Is a Novel Actin Bundling Protein That Regulates Cell Spreading and Migration” (PLoS ONE, 2013):

B1: His-tagged wild-type swiprosin-1 (natural protein, human, UniProt Q96C19 1-240, looked up)
chain: MATDELATKLSRRLQMEGEGGGETPEQPGLNGAAAAAAGAPDEAAEALGSADCELSAKLLRRADLNQGIGEPQSPSRRVFNPYTEFKEFSRKQIKDMEKMFKQYDAGRDGFIDLMELKLMMEKLGAPQTHLGLKNMIKEVDEDFDSKLSFREFLLIFRKAAAGELQEDSGLCVLARLSEIDVSSEGVKGAKSFFEAKVQAINVSSRFEEEIKAEQEERKKQAEEMKQRKAAFKELQSTFK
notes: swiprosin-1, human, full-length clone amplified from pOTB7 (RZPD), cloned into a modified pET-28a; The modified pET-28a carries a TEV protease cleavage site (ENLYFQ/G) with the N-terminal tandem His tags; no cleavage is described and the protein is detected with anti-His; also called Swip-1; source: E. coli BL21 (DE3), purified (Ni-NTA agarose); not shown: His tag (tandem), N-terminal, kept

Legend:
[1] = biological target: T1, GST-tagged wild-type swiprosin-1 (human, UniProt Q96C19 1-240); assay: pull-down; GST pull-down: equal amounts of purified GST_Swip-1 (wild type or mutants) and His_Swip-1 with glutathione-Sepharose 4B beads, 2 h at 4°C, 50 mM Hepes pH 7.4, 150 mM NaCl, 1.5 mM MgCl2, 1% Triton X-100; blot with anti-His; also with or without 2 mM EGTA; details: both partners purified
T1 construct: swiprosin-1, human, full length, in pGEX-4T-1; source: E. coli BL21, purified (glutathione beads, eluted with glutathione)
T1 sequence (looked up): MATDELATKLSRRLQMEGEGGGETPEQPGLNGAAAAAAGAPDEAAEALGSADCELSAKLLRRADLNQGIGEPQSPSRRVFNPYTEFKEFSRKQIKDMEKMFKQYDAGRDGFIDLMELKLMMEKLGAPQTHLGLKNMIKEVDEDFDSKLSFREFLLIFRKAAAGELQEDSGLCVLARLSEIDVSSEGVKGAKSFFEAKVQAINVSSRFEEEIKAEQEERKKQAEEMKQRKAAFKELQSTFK

[2] = biological target: B1; assay: as above; details: both partners purified

Row | binding result [1] | binding result [2] | Binder
1 | binds | – | B1
2 | – | binds | GST-tagged swiprosin-1 163–240 (domain or fragment, human, UniProt Q96C19 163-240, looked up, swiprosin-1, human, residues 163–240 (C-terminal region with the coiled-coil domain), in pGEX-4T-1; also called 163–240 (h); source: E. coli BL21, purified (glutathione beads, eluted with glutathione)) GELQEDSGLCVLARLSEIDVSSEGVKGAKSFFEAKVQAINVSSRFEEEIKAEQEERKKQAEEMKQRKAAFKELQSTFK
3 | – | binds | AINVSSRFEEEIKAEQEERKKQAEEMKQRKAAFKELQSTFK (domain or fragment, human, UniProt Q96C19 200-240, looked up, swiprosin-1, human, residues 200–240 (C-terminal coiled-coil region), in pGEX-4T-1; also called 200–240 (i); source: E. coli BL21, purified (glutathione beads, eluted with glutathione)) [GST-tagged swiprosin-1 200–240]
